Results published in patent US20260193326A1.

B1: A4-D11 (protein)
chain: VQLQESGGGLVQPGGSLRLSCAASGRGFSINTMGWYRQAPGKQRELVAAVTRGGTTNYADSVKGRFTISRDNAKNTVYLQMNSLRPEDTAVYYCHVDEVRQSSWTTSNLWGQGTQVTVSSGGGGSGGGGSGGGGSVQLQESGGGLVQPGGSLRLSCAASGSIFSINTMGWYRQAPGKQRELVAAVTRGGSTNYADSVKGRFTISRDNAKNTVYLQMNSLRPEDTAVYYCHVDEVRQSSWTTSNLWGQGTQVTVSSGGGGSGGGGSGGGGSVQLQESGGGLVQPGGSLRLSCAASGSIFIINTMGWYRRAPGKQRELVAAVTRGGSTNYADSVKGRFTISRDNAKNTVYLQMNSLRPEDTAVYYCHVDEVRQSSWTTSNLWGQGTQVTVSSGGGGSGGGGSGGGGSVQLQESGGGLVQPGGSLRLSCAASGSSFVINTMGWYRQAPGKQRELVAAVTRGGSTNYADSVKGRFTISRDNAKNTVYLQMNSLRPEDTAVYYCHVDEVRQSSWTTSNLWGQGTQVTVSS
B2: A4-D12 (protein)
chain: VQLQESGGGLVQPGGSLRLSCAASGSIFSINTMGWYRQAPGKQRELVAAVTRGGSTNYADSVKGRFTISRDNAKNTVYLQMNSLRPEDTAVYYCHVDEVRQSSWTTSNLWGQGTQVTVSSGGGGSGGGGSGGGGSVQLQESGGGLAQAGGSLRLSCAASGRGFSINTMGWYRQAPGKQRELVAAVTRGGTTNYADSVKGRFTISRDNAKNTVYLQMNSLRPEDTAVYYCHVDEVRQSSWTTSNLWGQGTQVTVSSGGGGSGGGGSGGGGSVQLQESGGGLVQPGGSLRLSCAASGRAFSINTMGWYRQAPGKQRELVATVTRDGSTNYAGSVKGRFTISRDNAKNTVYLQMNSLRPEDTAVYYCHVDEVRQSSWTTSNLWGQGTQVTVSSGGGGSGGGGSGGGGSVQLQESGGGLVQPGGSLRLSCAASGSIFIINTMGWYRRAPGKQRELVAAVTRGGSTNYADSVKGRFTISRDNAKNTVYLQMNSLRPEDTAVYYCHVDEVRQSSWTTSNLWGQGTQVTVSS
B3: A4-D13 (protein)
chain: VQLQESGGGLVQPGGSLRLSCAASGSIFIINTMGWYRRAPGKQRELVAAVTRGGSTNYADSVKGRFTISRDNAKNTVYLQMNSLRPEDTAVYYCHVDEVRQSSWTTSNLWGQGTQVTVSSGGGGSGGGGSGGGGSVQLQESGGGLVQPGGSLRLSCAASGSIFSINTMGWYRQAPGKQRELVAAVTRGGSTNYADSVKGRFTISRDNAKNTVYLQMNSLRPEDTAVYYCHVDEVRQSSWTTSNLWGQGTQVTVSSGGGGSGGGGSGGGGSVQLQESGGGLAQAGGSLRLSCAASGRGFSINTMGWYRQAPGKQRELVAAVTRGGTTNYADSVKGRFTISRDNAKNTVYLQMNSLRPEDTAVYYCHVDEVRQSSWTTSNLWGQGTQVTVSSGGGGSGGGGSGGGGSVQLQESGGGLVQPGGSLRLSCAASGRAFSINTMGWYRQAPGKQRELVATVTRDGSTNYAGSVKGRFTISRDNAKNTVYLQMNSLRPEDTAVYYCHVDEVRQSSWTTSNLWGQGTQVTVSS

Experiments:
Experiment in all cases: SPR, AAV on CM5 chip
[1] = target: AAV8 (adeno-associated virus serotype 8)
[2] = target: AAV5 (adeno-associated virus serotype 5)
[3] = target: AAV9 (adeno-associated virus serotype 9)

Row | Binder | Kd [1] [nM] | koff [1] [s⁻¹] | kon [1] [M⁻¹ s⁻¹] | Kd [2] [nM] | koff [2] [s⁻¹] | kon [2] [M⁻¹ s⁻¹] | Kd [3] [nM] | koff [3] [s⁻¹] | kon [3] [M⁻¹ s⁻¹]
1 | B1 | 0.319 | 1.5e-05 | 47000 | 1.15 | 1.4e-05 | 12200 | 0.181 | 4.8e-06 | 26500
2 | B2 | 0.262 | 6.5e-06 | 24800 | 0.44 | 1.7e-05 | 38600 | 0.0555 | 3e-06 | 54000
3 | B3 | 0.355 | 6.9e-06 | 19400 | 0.701 | 1.31e-05 | 18700 | 0.0471 | 2.6e-06 | 55200
